By Kd is commonly meant the constant that tells how readily two partners part at equilibrium. Read a high Kd as weaker binding.

In patent US20160223545A1 one finds Kd and fold weaker than P-Jak3 binding with P-Villin data, which are given here for two substances.

Experiment [1] has as its target T1, phosphorylated Villin (UniProt P09327).
T1 sequence (tyrosine phosphorylated by expression in E. coli TKX1; sites not stated, looked up): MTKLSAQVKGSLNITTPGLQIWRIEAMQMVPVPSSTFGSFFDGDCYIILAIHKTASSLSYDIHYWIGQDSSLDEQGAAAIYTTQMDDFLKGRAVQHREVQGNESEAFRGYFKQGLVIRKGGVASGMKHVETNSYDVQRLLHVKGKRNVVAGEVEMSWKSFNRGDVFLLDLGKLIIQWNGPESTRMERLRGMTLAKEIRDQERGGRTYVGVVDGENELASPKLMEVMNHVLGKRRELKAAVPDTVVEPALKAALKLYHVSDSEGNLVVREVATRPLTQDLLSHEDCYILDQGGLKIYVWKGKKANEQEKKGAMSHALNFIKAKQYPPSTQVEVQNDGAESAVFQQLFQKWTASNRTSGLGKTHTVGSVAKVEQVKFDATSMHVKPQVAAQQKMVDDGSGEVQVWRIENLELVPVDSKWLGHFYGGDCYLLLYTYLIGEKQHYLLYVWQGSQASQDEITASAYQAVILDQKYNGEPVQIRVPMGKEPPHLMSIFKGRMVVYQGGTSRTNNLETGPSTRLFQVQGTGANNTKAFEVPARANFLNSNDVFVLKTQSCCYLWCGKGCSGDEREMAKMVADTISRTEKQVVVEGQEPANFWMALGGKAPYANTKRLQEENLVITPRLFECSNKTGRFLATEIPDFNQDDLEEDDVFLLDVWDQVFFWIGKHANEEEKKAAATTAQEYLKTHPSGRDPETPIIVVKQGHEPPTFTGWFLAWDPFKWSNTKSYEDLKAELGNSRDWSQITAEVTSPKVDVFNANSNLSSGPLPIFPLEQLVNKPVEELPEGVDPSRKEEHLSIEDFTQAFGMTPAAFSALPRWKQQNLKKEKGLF
Nature of the experiment: multiplate ELISA, P-Villin coated, GST-Jak3-G257 titrated, anti-GST detection. For orientation: In an ELISA, binding on a coated surface is turned into a signal by an enzyme label.

The target in experiment [2] is phosphorylated adapter protein p52ShcA (UniProt P29353). Nature of the experiment: multiplate ELISA, comparison of Kd values.
For experiment [3] the target is unchanged. The experiment can be described thus: multiplate ELISA, P-p52ShcA coated, GST-P-Jak3 titrated, anti-GST detection.
Experiment [4] has as its target T1, phosphorylated Villin. The experiment can be described thus: multiplate ELISA, P-Villin coated, GST-P-Jak3 titrated, anti-GST detection, GST-alone control subtracted.

As for “GST-truncated Jak3 fusion protein lacking the JH1, JH2, JH3 and JH4 domains”, the Kd with phosphorylated Villin [1] worked out at 40 nM. This lies in the double-digit nanomolar range.

Substance “phosphorylated GST-WT-Jak3 fusion protein (enzyme)” returned a fold weaker than P-Jak3 binding with P-Villin in experiment [2] of 10 fold. The Kd in experiment [3] is 220 nM; with phosphorylated Villin [4] it was 23 nM.
